T1: FcγRIIa H (FcγRIIa type H, His at position 131), extracellular domain with C-terminal His tag (human, UniProt P12318 34-217)
T1 construct: extracellular domain; also called FcgRIIa H; 2aH
T1 sequence (looked up): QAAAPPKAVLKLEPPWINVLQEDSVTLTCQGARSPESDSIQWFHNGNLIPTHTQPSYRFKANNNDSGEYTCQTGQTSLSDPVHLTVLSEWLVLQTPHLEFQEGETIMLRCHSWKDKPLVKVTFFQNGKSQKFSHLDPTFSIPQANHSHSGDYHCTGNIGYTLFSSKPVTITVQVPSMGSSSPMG

T2: FcγRIIb extracellular domain with C-terminal His tag (human, UniProt P31994 43-217)
T2 construct: extracellular domain; also called FcgRIIb; 2b; not shown: His tag at the C terminus
T2 sequence (looked up): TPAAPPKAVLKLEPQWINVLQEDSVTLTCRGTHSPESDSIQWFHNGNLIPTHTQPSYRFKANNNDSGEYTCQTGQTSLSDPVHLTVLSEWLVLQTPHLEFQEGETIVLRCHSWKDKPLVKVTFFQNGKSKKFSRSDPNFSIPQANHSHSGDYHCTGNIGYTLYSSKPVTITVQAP

B1: GpH7-A5/GpH7-B3 variant T335_13S/GpL16-k0 (antibody, human IgG1, kappa)
heavy 1: not shown
heavy 2: not shown
light: DIVMTQSPLSLPVTPGEPASISCQASESLVHSNRNTYLHWYLQKPGQSPQLLIYKVSNRFSGVPDRFSGSGSGTDFTLKISRVEAEDVGVYYCSQNTHVPPTFGQGTKVEIERTVAAPSVFIFPPSDEQLKSGTASVVCLLNNFYPREAKVQWKVDNALQSGNSQESVTEQDSKDSTYSLSSTLTLSKADYEKHKVYACEVTHQGLSSPVTKSFNRGEC
notes: one H chain mutated; also called He Ab
B2: GpH7-B3 variant K326_07I/GpL16-k0 (antibody, human IgG1, kappa)
heavy: not shown
light: B1 light
notes: also called Ho Ab K326_07I
B3: GpH7-B3 variant K334_02A/GpL16-k0 (antibody, human IgG1, kappa)
heavy: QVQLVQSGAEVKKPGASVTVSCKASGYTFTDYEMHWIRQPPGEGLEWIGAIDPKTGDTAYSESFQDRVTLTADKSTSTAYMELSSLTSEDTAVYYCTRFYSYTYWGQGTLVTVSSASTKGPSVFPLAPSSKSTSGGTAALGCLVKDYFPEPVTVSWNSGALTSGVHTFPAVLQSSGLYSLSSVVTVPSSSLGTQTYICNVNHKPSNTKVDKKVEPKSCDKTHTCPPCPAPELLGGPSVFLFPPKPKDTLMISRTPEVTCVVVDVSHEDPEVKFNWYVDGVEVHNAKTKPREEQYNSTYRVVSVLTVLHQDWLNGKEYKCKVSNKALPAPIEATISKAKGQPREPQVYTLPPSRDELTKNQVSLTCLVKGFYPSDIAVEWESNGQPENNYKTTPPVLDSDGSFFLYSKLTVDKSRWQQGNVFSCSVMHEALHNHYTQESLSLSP
light: B1 light
notes: also called Ho Ab K334_02A
B4: GpH7-B3 variant A330_01G/GpL16-k0 (antibody, human IgG1, kappa)
heavy: not shown
light: B1 light
notes: also called Ho Ab A330_01G
B5: GpH7-B3 variant H268_09D/GpL16-k0 (antibody, human IgG1, kappa)
heavy: not shown
light: B1 light
notes: also called Ho Ab H268_09D
B6: GpH7-B3 variant K334_07I/GpL16-k0 (antibody, human IgG1, kappa)
heavy: not shown
light: B1 light
notes: also called Ho Ab K334_07I
B7: GpH7-B3 variant K326_06M/GpL16-k0 (antibody, human IgG1, kappa)
heavy: not shown
light: B1 light
notes: also called Ho Ab K326_06M
B8: GpH7-B3 variant P331_20W/GpL16-k0 (antibody, human IgG1, kappa)
heavy: not shown
light: B1 light
notes: also called Ho Ab P331_20W
B9: GpH7-A5/GpH7-B3 variant T335_15Y/GpL16-k0 (antibody, human IgG1, kappa)
heavy 1: not shown
heavy 2: not shown
light: B1 light
notes: as for B1
B10: GpH7-B3 variant I332_06M/GpL16-k0 (antibody, human IgG1, kappa)
heavy: not shown
light: B1 light
notes: also called Ho Ab I332_06M
B11: GpH7-B3 variant I336_08L/GpL16-k0 (antibody, human IgG1, kappa)
heavy: not shown
light: B1 light
notes: also called Ho Ab I336_08L
B12: GpH7-B3 variant G236_10E/GpL16-k0 (antibody, human IgG1, kappa)
heavy: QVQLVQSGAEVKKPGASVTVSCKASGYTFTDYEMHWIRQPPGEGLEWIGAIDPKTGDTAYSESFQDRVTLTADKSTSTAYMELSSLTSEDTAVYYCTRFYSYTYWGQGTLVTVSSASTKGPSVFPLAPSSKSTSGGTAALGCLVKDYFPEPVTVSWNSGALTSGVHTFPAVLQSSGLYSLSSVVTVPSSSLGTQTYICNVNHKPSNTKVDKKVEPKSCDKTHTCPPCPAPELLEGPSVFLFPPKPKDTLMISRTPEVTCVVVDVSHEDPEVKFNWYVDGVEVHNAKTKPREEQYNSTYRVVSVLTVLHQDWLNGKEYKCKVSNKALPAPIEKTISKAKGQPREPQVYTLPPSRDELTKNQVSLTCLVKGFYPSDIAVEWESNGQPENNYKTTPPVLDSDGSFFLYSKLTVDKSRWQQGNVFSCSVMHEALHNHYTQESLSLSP
light: B1 light
notes: also called Ho Ab G236_10E
B13: GpH7-B3 variant H268_13S/GpL16-k0 (antibody, human IgG1, kappa)
heavy: not shown
light: B1 light
notes: also called Ho Ab H268_13S
B14: GpH7-B3 variant G237_20W/GpL16-k0 (antibody, human IgG1, kappa)
heavy: not shown
light: B1 light
notes: also called Ho Ab G237_20W
B15: GpH7-B3 variant I332_14T/GpL16-k0 (antibody, human IgG1, kappa)
heavy: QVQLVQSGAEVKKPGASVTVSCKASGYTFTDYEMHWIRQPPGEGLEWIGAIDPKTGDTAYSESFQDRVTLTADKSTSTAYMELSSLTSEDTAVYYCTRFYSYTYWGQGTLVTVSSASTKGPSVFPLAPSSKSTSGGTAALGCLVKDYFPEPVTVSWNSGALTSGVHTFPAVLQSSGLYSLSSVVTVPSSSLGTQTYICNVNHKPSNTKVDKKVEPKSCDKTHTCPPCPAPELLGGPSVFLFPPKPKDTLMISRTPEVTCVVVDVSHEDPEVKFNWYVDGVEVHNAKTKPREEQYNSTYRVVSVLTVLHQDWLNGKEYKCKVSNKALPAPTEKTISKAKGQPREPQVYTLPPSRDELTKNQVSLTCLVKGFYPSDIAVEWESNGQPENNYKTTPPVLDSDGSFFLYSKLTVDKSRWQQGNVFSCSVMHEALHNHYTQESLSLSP
light: B1 light
notes: also called Ho Ab I332_14T
B16: GpH7-B3 variant K326_14T/GpL16-k0 (antibody, human IgG1, kappa)
heavy: not shown
light: B1 light
notes: also called Ho Ab K326_14T
B17: GpH7-B3 variant L328_02A/GpL16-k0 (antibody, human IgG1, kappa)
heavy: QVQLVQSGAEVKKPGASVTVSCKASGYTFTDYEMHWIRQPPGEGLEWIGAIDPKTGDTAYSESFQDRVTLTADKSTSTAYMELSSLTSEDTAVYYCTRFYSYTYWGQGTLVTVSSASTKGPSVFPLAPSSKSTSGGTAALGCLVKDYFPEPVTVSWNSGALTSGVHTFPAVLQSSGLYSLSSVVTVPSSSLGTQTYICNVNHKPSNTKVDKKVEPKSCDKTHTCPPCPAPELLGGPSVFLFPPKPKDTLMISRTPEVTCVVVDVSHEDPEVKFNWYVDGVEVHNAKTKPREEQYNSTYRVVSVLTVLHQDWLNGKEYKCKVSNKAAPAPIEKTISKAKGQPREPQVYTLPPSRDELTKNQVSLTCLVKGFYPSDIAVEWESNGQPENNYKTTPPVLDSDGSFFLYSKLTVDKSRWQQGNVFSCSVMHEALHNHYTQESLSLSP
light: B1 light
notes: also called Ho Ab L328_02A
B18: GpH7-B3 variant P331_16H/GpL16-k0 (antibody, human IgG1, kappa)
heavy: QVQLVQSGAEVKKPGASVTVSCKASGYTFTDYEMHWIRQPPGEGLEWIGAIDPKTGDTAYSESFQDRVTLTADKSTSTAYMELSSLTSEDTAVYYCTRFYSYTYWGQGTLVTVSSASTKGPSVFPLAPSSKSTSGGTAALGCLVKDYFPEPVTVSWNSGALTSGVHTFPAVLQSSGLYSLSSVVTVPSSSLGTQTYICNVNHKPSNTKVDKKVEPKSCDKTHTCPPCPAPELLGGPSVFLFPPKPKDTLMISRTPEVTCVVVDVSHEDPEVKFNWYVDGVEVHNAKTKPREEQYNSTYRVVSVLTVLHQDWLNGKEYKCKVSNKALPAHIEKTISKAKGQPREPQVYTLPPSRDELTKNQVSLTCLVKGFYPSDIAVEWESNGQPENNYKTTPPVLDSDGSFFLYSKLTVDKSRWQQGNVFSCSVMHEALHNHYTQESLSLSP
light: B1 light
notes: also called Ho Ab P331_16H
B19: GpH7-B3 variant K334_05P/GpL16-k0 (antibody, human IgG1, kappa)
heavy: not shown
light: B1 light
notes: also called Ho Ab K334_05P
B20: GpH7-A5/GpH7-B3 variant T335_19Q/GpL16-k0 (antibody, human IgG1, kappa)
heavy 1: not shown
heavy 2: not shown
light: B1 light
notes: as for B1
B21: GpH7-B3 variant A327_09D/GpL16-k0 (antibody, human IgG1, kappa)
heavy: not shown
light: B1 light
notes: also called Ho Ab A327_09D
B22: GpH7-B3 variant H268_18N/GpL16-k0 (antibody, human IgG1, kappa)
heavy: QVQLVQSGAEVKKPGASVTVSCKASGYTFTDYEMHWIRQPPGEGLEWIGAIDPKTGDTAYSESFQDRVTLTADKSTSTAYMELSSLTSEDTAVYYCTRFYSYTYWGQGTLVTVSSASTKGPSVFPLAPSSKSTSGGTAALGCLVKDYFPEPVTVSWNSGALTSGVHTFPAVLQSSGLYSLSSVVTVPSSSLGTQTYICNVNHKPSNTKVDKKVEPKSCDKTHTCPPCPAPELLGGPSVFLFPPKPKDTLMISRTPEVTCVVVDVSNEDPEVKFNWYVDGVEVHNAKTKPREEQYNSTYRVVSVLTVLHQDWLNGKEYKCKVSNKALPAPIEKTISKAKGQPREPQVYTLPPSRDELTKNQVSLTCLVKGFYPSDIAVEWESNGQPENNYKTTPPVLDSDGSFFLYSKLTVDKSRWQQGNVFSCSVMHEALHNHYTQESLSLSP
light: B1 light
notes: also called Ho Ab H268_18N
B23: GpH7-B3 variant K334_14T/GpL16-k0 (antibody, human IgG1, kappa)
heavy: not shown
light: B1 light
notes: also called Ho Ab K334_14T
B24: GpH7-B3 variant K326_20W/GpL16-k0 (antibody, human IgG1, kappa)
heavy: not shown
light: B1 light
notes: also called Ho Ab K326_20W
B25: GpH7-B3 variant I332_04F/GpL16-k0 (antibody, human IgG1, kappa)
heavy: not shown
light: B1 light
notes: also called Ho Ab I332_04F
B26: GpH7-B3 variant A327_10E/GpL16-k0 (antibody, human IgG1, kappa)
heavy: not shown
light: B1 light
notes: also called Ho Ab A327_10E
B27: GpH7-B3 variant K334_04F/GpL16-k0 (antibody, human IgG1, kappa)
heavy: not shown
light: B1 light
notes: also called Ho Ab K334_04F
B28: GpH7-B3 variant K326_09D/GpL16-k0 (antibody, human IgG1, kappa)
heavy: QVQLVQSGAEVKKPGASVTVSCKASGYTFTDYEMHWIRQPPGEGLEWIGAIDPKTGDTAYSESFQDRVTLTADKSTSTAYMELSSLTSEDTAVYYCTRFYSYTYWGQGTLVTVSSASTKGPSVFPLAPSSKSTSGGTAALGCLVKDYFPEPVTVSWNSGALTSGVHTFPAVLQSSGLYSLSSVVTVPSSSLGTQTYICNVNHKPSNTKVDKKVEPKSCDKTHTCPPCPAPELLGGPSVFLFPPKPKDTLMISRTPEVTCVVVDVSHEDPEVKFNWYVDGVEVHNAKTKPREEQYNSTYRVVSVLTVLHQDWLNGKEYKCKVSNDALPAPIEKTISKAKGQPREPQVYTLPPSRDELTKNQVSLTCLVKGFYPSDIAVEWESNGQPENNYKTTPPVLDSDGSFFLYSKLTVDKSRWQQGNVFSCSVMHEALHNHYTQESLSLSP
light: B1 light
notes: also called Ho Ab K326_09D
B29: GpH7-B3 variant I332_15Y/GpL16-k0 (antibody, human IgG1, kappa)
heavy: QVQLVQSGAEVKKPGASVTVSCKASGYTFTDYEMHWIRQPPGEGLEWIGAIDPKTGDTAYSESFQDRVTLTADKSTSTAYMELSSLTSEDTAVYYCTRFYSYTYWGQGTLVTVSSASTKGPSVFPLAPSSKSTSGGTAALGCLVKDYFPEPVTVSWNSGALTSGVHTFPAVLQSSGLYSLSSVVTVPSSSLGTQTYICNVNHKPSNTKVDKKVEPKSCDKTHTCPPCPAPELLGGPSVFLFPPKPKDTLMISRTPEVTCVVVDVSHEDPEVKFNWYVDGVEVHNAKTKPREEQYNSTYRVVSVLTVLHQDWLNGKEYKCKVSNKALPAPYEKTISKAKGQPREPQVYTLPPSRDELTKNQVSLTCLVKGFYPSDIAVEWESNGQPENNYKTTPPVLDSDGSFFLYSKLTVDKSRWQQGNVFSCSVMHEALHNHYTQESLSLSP
light: B1 light
notes: also called Ho Ab I332_15Y
B30: GpH7-B3 variant L235_20W/GpL16-k0 (antibody, human IgG1, kappa)
heavy: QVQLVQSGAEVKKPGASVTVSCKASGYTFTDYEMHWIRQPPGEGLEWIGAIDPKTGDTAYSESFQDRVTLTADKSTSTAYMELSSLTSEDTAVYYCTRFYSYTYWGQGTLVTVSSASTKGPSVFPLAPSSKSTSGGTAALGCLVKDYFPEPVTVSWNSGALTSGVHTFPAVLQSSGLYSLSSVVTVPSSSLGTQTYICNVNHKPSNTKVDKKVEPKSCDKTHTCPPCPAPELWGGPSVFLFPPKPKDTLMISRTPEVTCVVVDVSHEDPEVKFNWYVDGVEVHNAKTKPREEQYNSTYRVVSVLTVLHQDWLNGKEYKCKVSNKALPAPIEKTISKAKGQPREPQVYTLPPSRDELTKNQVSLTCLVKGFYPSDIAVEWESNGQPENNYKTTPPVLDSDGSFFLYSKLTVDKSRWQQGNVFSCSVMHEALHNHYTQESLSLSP
light: B1 light
notes: also called Ho Ab L235_20W
B31: GpH7-B3 variant P238_09D/GpL16-k0 (antibody, human IgG1, kappa)
heavy: not shown
light: B1 light
notes: also called Ho Ab P238_09D
B32: GpH7-B3 variant I332_09D/GpL16-k0 (antibody, human IgG1, kappa)
heavy: not shown
light: B1 light
notes: also called Ho Ab I332_09D
B33: GpH7-B3 variant K326_16H/GpL16-k0 (antibody, human IgG1, kappa)
heavy: not shown
light: B1 light
notes: also called Ho Ab K326_16H
B34: GpH7-B3 variant K326_03V/GpL16-k0 (antibody, human IgG1, kappa)
heavy: not shown
light: B1 light
notes: also called Ho Ab K326_03V
B35: GpH7-B3 variant K334_08L/GpL16-k0 (antibody, human IgG1, kappa)
heavy: not shown
light: B1 light
notes: also called Ho Ab K334_08L
B36: GpH7-B3 variant K334_03V/GpL16-k0 (antibody, human IgG1, kappa)
heavy: not shown
light: B1 light
notes: also called Ho Ab K334_03V
B37: GpH7-B3 variant K326_15Y/GpL16-k0 (antibody, human IgG1, kappa)
heavy: not shown
light: B1 light
notes: also called Ho Ab K326_15Y
B38: GpH7-B3 variant K334_13S/GpL16-k0 (antibody, human IgG1, kappa)
heavy: not shown
light: B1 light
notes: also called Ho Ab K334_13S
B39: GpH7-B3 variant G237_04F/GpL16-k0 (antibody, human IgG1, kappa)
heavy: not shown
light: B1 light
notes: also called Ho Ab G237_04F
B40: GpH7-B3 variant P331_15Y/GpL16-k0 (antibody, human IgG1, kappa)
heavy: not shown
light: B1 light
notes: also called Ho Ab P331_15Y
B41: GpH7-B3 variant H268_10E/GpL16-k0 (antibody, human IgG1, kappa)
heavy: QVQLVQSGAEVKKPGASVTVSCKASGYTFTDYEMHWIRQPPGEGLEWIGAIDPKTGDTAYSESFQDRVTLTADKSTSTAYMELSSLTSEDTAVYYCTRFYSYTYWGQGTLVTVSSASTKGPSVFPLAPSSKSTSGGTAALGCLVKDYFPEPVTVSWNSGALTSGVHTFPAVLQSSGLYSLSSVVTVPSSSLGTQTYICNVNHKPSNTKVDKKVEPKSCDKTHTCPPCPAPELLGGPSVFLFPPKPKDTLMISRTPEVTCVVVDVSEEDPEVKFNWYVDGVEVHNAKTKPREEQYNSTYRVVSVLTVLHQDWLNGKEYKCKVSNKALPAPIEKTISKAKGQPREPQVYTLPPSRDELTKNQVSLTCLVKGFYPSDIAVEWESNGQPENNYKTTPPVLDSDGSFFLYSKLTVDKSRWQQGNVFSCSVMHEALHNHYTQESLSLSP
light: B1 light
notes: also called Ho Ab H268_10E
B42: GpH7-B3 variant L328_13S/GpL16-k0 (antibody, human IgG1, kappa)
heavy: not shown
light: B1 light
notes: also called Ho Ab L328_13S
B43: GpH7-B3 variant I332_10E/GpL16-k0 (antibody, human IgG1, kappa)
heavy: not shown
light: B1 light
notes: also called Ho Ab I332_10E
B44: GpH7-B3 variant K334_10E/GpL16-k0 (antibody, human IgG1, kappa)
heavy: not shown
light: B1 light
notes: also called Ho Ab K334_10E
B45: GpH7-B3 variant P238_15Y/GpL16-k0 (antibody, human IgG1, kappa)
heavy: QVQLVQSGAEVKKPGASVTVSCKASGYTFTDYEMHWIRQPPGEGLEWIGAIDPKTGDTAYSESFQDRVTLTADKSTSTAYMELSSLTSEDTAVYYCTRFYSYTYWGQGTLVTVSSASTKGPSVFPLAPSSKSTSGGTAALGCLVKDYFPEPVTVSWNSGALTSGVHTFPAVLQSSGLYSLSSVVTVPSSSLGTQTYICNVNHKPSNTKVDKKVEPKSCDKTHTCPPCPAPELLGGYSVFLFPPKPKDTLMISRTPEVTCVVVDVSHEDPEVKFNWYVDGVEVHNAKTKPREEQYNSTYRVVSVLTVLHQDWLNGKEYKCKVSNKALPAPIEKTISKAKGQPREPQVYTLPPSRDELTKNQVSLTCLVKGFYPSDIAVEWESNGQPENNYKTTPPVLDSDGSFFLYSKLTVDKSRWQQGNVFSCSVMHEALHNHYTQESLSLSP
light: B1 light
notes: also called Ho Ab P238_15Y
B46: GpH7-B3 variant K326_10E/GpL16-k0 (antibody, human IgG1, kappa)
heavy: not shown
light: B1 light
notes: also called Ho Ab K326_10E
B47: GpH7-B3 variant K326_04F/GpL16-k0 (antibody, human IgG1, kappa)
heavy: not shown
light: B1 light
notes: also called Ho Ab K326_04F
B48: GpH7-B3 variant H268_01G/GpL16-k0 (antibody, human IgG1, kappa)
heavy: not shown
light: B1 light
notes: also called Ho Ab H268_01G
B49: GpH7-B3 variant P238_04F/GpL16-k0 (antibody, human IgG1, kappa)
heavy: not shown
light: B1 light
notes: also called Ho Ab P238_04F
B50: GpH7-B3 variant K326_08L/GpL16-k0 (antibody, human IgG1, kappa)
heavy: not shown
light: B1 light
notes: also called Ho Ab K326_08L
B51: GpH7-A5/GpH7-B3 variant T335_16H/GpL16-k0 (antibody, human IgG1, kappa)
heavy 1: not shown
heavy 2: not shown
light: B1 light
notes: as for B1
B52: GpH7-B3 variant G236_09D/GpL16-k0 (antibody, human IgG1, kappa)
heavy: not shown
light: B1 light
notes: also called Ho Ab G236_09D
B53: GpH7-B3 variant K326_19Q/GpL16-k0 (antibody, human IgG1, kappa)
heavy: not shown
light: B1 light
notes: also called Ho Ab K326_19Q

Assays:
[1] = target: T1, FcγRIIa H (FcγRIIa type H, His at …); experiment: SPR Biacore, relative binding, GpH7-A5/GpH7-B3/GpL16-k0 (HeCon Ab)=100
Procedure: (§1) Analysis of interaction between objective antibody and the FcγR was carried out using Biacore T100 (GE Healthcare). HBS-EP+ (GE Healthcare) was used as the running buffer, and the measurement temperature was set to 25° C. Chips produced by immobilizing the antigen peptide by the amine coupling method to a Series S Sencor Chip CM5 (GE Healthcare), or alternatively, chips produced by allowing preliminarily biotinylated antigen peptides to interact with and immobilize onto a Series S Sensor Chip SA (certified) (GE Healthcare) were used. Antibodies of interest were captured onto an antigen peptide-immobilized chip, and allowed to interact to each FcγR diluted with running buffer. To regenerate and repeatedly use the chip, the antibodies captured on the chip were washed off by reacting 10 mM glycine-HCl, pH 1.5.

[2] = target: T2, FcγRIIb extracellular domain with …; experiment: SPR, relative binding, HoCon Ab = 100
Procedure: as §1

Binder | He/Con_2aH [1] | Ho/Con_2b [2]
B1 | 106 % of control | –
B2 | – | 170 % of control
B3 | – | 110 % of control
B4 | – | 102 % of control
B5 | – | 298 % of control
B6 | – | 137 % of control
B7 | – | 193 % of control
B8 | – | 111 % of control
B9 | 106 % of control | –
B10 | – | 106 % of control
B11 | – | 103 % of control
B12 | – | 114 % of control
B13 | – | 186 % of control
B14 | – | 166 % of control
B15 | – | 106 % of control
B16 | – | 177 % of control
B17 | – | 117 % of control
B18 | – | 100 % of control
B19 | – | 112 % of control
B20 | 103 % of control | –
B21 | – | 175 % of control
B22 | – | 179 % of control
B23 | – | 138 % of control
B24 | – | 132 % of control
B25 | – | 117 % of control
B26 | – | 148 % of control
B27 | – | 115 % of control

Binder | He/Con_2aH [1] | Ho/Con_2b [2]
B28 | – | 240 % of control
B29 | – | 109 % of control
B30 | – | 116 % of control
B31 | – | 207 % of control
B32 | – | 182 % of control
B33 | – | 131 % of control
B34 | – | 184 % of control
B35 | – | 114 % of control
B36 | – | 145 % of control
B37 | – | 162 % of control
B38 | – | 117 % of control
B39 | – | 140 % of control
B40 | – | 111 % of control
B41 | – | 275 % of control
B42 | – | 147 % of control
B43 | – | 181 % of control
B44 | – | 129 % of control
B45 | – | 114 % of control
B46 | – | 237 % of control
B47 | – | 160 % of control
B48 | – | 158 % of control
B49 | – | 209 % of control
B50 | – | 168 % of control
B51 | 105 % of control | –
B52 | – | 207 % of control
B53 | – | 163 % of control
